Patent US20110301079A1 (INSTITUTO DI RICERCHE DI BIOLOGIA MOLECOLARE P ANGELETTI S …, published 2011)
Groups on a side chain read outwards from the residue. *: point of attachment. cholesteroyl = cholesterol group linked to a cysteine residue via the side-chain thiol; Succinimide(1-Et,3-yl) = CCN1C(=O)CC(*)C1=O

B1: NMS1 (Ac-C2ILQRGSGTAAVDFTKKDHTATWGRPFFLFRPRN-CONH2) (peptide)
peptide: Ac-C([maleimide-(PEG)2 40 kDa])ILQRGSGTAAVDFTKKDHTATWGRPFFLFRPRN-NH2
B2: native human Neuromedin S peptide (NMS) (peptide)
peptide: H-ILQRGSGTAAVDFTKKDHTATWGRPFFLFRPRN-NH2
B3: NMS2 (Ac-C3ILQRGSGTAAVDFTKKDHTATWGRPFFLFRPRN-CONH2) (peptide)
peptide: Ac-C(cholesteroyl)ILQRGSGTAAVDFTKKDHTATWGRPFFLFRPRN-NH2
B4: NMS4 (Ac-C4ILQRGSGTAAVDFTKKDHTATWGRPFFLFRPRN-CONH2) (peptide)
peptide: Ac-C([maleimide-PEG 40 kDa])ILQRGSGTAAVDFTKKDHTATWGRPFFLFRPRN-NH2
B5: NMS3 (Ac-C1ILQRGSGTAAVDFTKKDHTATWGRPFFLFRPRN-CONH2) (peptide)
peptide: Ac-C(Succinimide(1-Et,3-yl))ILQRGSGTAAVDFTKKDHTATWGRPFFLFRPRN-NH2
SMILES: CC[C@H](C)[C@H](NC(=O)[C@H](CSC1CC(=O)N(CC)C1=O)NC(C)=O)C(=O)N[C@@H](CC(C)C)C(=O)N[C@@H](CCC(N)=O)C(=O)N[C@@H](CCCNC(=N)N)C(=O)NCC(=O)N[C@@H](CO)C(=O)NCC(=O)N[C@H](C(=O)N[C@@H](C)C(=O)N[C@@H](C)C(=O)N[C@H](C(=O)N[C@@H](CC(=O)O)C(=O)N[C@@H](Cc1ccccc1)C(=O)N[C@H](C(=O)N[C@@H](CCCCN)C(=O)N[C@@H](CCCCN)C(=O)N[C@@H](CC(=O)O)C(=O)N[C@@H](Cc1c[nH]cn1)C(=O)N[C@H](C(=O)N[C@@H](C)C(=O)N[C@H](C(=O)N[C@@H](Cc1c[nH]c2ccccc12)C(=O)NCC(=O)N[C@@H](CCCNC(=N)N)C(=O)N1CCC[C@H]1C(=O)N[C@@H](Cc1ccccc1)C(=O)N[C@@H](Cc1ccccc1)C(=O)N[C@@H](CC(C)C)C(=O)N[C@@H](Cc1ccccc1)C(=O)N[C@@H](CCCNC(=N)N)C(=O)N1CCC[C@H]1C(=O)N[C@@H](CCCNC(=N)N)C(=O)N[C@@H](CC(N)=O)C(N)=O)[C@@H](C)O)[C@@H](C)O)[C@@H](C)O)C(C)C)[C@@H](C)O
B6: NMS5 (Pam-ILQRGSGTAAVDFTKKDHTATWGRPFFLFRPRN-CONH2) (peptide)
peptide: ILQRGSGTAAVDFTKKDHTATWGRPFFLFRPRN
HELM: PEPTIDE1{[CCCCCCCCCCCCCCCC(=O)[*:2]].I.L.Q.R.G.S.G.T.A.A.V.D.F.T.K.K.D.H.T.A.T.W.G.R.P.F.F.L.F.R.P.R.N.[am]}$$$$V2.0
SMILES: CCCCCCCCCCCCCCCC(=O)N[C@H](C(=O)N[C@@H](CC(C)C)C(=O)N[C@@H](CCC(N)=O)C(=O)N[C@@H](CCCNC(=N)N)C(=O)NCC(=O)N[C@@H](CO)C(=O)NCC(=O)N[C@H](C(=O)N[C@@H](C)C(=O)N[C@@H](C)C(=O)N[C@H](C(=O)N[C@@H](CC(=O)O)C(=O)N[C@@H](Cc1ccccc1)C(=O)N[C@H](C(=O)N[C@@H](CCCCN)C(=O)N[C@@H](CCCCN)C(=O)N[C@@H](CC(=O)O)C(=O)N[C@@H](Cc1c[nH]cn1)C(=O)N[C@H](C(=O)N[C@@H](C)C(=O)N[C@H](C(=O)N[C@@H](Cc1c[nH]c2ccccc12)C(=O)NCC(=O)N[C@@H](CCCNC(=N)N)C(=O)N1CCC[C@H]1C(=O)N[C@@H](Cc1ccccc1)C(=O)N[C@@H](Cc1ccccc1)C(=O)N[C@@H](CC(C)C)C(=O)N[C@@H](Cc1ccccc1)C(=O)N[C@@H](CCCNC(=N)N)C(=O)N1CCC[C@H]1C(=O)N[C@@H](CCCNC(=N)N)C(=O)N[C@@H](CC(N)=O)C(N)=O)[C@@H](C)O)[C@@H](C)O)[C@@H](C)O)C(C)C)[C@@H](C)O)[C@@H](C)CC

Target: mouse NMUR2 (mouse, UniProt Q8BZ39 1-395)
Experiment: cell-based or functional assay

Chain of mouse NMUR2 (Q8BZ39 whole entry): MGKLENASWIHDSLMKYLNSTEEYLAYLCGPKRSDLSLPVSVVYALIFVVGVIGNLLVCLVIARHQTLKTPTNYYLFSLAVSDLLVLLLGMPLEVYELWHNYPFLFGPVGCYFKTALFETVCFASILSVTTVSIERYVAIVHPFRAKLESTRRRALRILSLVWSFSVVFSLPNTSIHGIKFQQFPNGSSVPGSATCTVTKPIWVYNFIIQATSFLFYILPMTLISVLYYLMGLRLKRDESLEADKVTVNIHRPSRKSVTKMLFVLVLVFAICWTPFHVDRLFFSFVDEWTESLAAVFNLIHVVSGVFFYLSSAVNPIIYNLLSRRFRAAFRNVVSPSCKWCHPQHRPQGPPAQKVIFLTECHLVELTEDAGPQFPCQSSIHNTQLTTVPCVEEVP

Binder | % Activity (maximum response at 1 µM compared to the human NMU-25 response) [%]
B1 | 99
B2 | 111
B3 | 32
B4 | 104
B5 | 108
B6 | 78

Target: dog NMUR2 (dog)
Experiment: cell-based or functional assay

Binder | % Activity (maximum response at 1 µM compared to the human NMU-25 response) [%]
B1 | 78
B2 | 104
B3 | 84
B4 | 101
B5 | 107
B6 | 100

Target: human NMUR2 (human, UniProt Q9GZQ4 1-415)
Experiment: cell-based or functional assay

Chain of human NMUR2 (Q9GZQ4 whole entry): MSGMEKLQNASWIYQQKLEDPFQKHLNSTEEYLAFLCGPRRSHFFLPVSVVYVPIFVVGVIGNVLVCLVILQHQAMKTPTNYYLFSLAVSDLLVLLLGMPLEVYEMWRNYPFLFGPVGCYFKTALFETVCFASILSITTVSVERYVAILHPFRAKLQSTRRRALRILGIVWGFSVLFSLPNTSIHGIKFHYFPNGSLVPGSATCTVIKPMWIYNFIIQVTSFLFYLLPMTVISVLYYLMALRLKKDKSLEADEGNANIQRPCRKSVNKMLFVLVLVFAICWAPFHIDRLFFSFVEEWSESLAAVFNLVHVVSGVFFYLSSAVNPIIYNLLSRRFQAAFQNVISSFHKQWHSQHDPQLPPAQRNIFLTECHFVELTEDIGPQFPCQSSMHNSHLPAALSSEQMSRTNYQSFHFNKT

Binder | % Activity (maximum response at 1 µM compared to the human NMU-25 response) [%]
B1 | 81
B2 | 107
B3 | 16
B4 | 94
B5 | 105
B6 | 93

Target: T1, mouse NMUR1-ATG (mouse, UniProt O55040 1-428)
T1 sequence (looked up): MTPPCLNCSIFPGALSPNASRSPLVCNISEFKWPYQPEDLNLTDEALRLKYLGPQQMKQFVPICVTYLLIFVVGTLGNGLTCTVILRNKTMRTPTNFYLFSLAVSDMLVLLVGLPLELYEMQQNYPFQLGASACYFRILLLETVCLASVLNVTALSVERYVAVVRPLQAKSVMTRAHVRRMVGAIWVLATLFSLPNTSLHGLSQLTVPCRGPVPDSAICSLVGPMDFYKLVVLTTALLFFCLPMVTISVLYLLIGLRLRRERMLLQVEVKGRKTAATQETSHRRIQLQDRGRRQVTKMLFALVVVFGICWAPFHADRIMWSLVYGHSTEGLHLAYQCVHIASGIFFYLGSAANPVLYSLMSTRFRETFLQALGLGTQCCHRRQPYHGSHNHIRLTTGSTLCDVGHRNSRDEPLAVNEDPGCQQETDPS
Experiment: cell-based or functional assay

Binder | % Activity (maximum response at 1 µM compared to the human NMU-25 response) [%]
B1 | 82
B2 | 102
B3 | 39
B4 | 95
B5 | 98
B6 | 83

Target: T2, human NMUR1 (human, UniProt Q9HB89 1-426)
T2 sequence (looked up): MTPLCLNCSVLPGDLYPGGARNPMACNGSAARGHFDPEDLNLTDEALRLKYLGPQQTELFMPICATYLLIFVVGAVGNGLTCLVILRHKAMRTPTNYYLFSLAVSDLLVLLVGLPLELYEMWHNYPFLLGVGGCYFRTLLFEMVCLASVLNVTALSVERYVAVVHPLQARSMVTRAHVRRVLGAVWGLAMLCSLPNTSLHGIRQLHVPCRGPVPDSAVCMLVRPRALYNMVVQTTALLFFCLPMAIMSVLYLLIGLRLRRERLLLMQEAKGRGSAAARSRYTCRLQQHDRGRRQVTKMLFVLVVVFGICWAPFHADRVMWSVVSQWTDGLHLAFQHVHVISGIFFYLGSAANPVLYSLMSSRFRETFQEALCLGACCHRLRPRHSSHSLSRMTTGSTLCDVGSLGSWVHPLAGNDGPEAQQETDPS
Experiment: cell-based or functional assay

Binder | % Activity (maximum response at 1 µM compared to the human NMU-25 response) [%]
B1 | 91
B2 | 97
B3 | 11
B4 | 88
B5 | 97
B6 | 85

Target: T3, dog NMUR1-ATG (dog, UniProt A0A8I3S7S8 1-422)
T3 sequence: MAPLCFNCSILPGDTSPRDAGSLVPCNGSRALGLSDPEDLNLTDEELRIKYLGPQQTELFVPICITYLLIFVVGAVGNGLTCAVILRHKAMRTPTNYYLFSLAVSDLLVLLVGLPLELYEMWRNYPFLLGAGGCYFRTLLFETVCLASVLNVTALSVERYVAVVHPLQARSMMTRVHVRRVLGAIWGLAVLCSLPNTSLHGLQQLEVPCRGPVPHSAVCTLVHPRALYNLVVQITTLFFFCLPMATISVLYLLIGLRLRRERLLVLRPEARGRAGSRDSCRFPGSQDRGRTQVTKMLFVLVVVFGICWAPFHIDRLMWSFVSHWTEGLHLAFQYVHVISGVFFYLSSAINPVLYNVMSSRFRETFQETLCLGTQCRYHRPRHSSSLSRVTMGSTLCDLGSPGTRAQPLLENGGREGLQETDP
Experiment: cell-based or functional assay

Binder | % Activity (maximum response at 1 µM compared to the human NMU-25 response) [%]
B1 | 97
B2 | 100
B3 | 46
B4 | 81
B5 | 101
B6 | 82
